Measured values as given in article PMC12242765, “CDK-driven phosphorylation of TRAIP is essential for mitotic replisome disassembly and MiDAS” (Nucleic Acids Research, 2025).

B1: His6-SUMO-tagged X. laevis TRAIP-wt (enzyme, UniProt Q6NRV0 1-464, looked up)
chain: MPIRAYCTICSDFFDNARDVAAITCGHTFHQECLLQWFHSAPHRTCPQCRIQVSSRQIINKLFFDIGGEEETVLDAESLKNEVDRIKASLLVKEKEKRECQGLVDSLREMLDVRNVTIQSQQKELGDMEMLCSTLKKQIKFLDKQQSETKAAKDEARKLRNKLKTMESIEVLLQSQRSEVEEMIRDMGSGQAAVEQLAIYCVSLKKEYENLKEVRKSSAEMTEKLRKELFSSNHKAQKAELELTKVREELSASQKELHSADKEIMSLKKKVEFLQKTLTTPTASNEAISRLIFESPAPIGLERPKLRPPMMGNDINLDVTFDIDTPEHNTQKSVVAPFKKMKFDNKEHPLSSPTKNPLQESKGLMSWAGGRTGADEDDDLTLPSFIKNSLLHKKPVGSLLGLRQNTGAVRTGFDGLGGRTKFIQPSNLTEIRPLHQKMKRKKVSRPTACTSSLANQPRLEDFLK
notes: TRAIP ubiquitin ligase, Xenopus laevis, wild type; SUMO-TRAIP is said to be 65 kDa; also called His6-SUMO-TRAIP-wt; His-SUMO-TRAIP; source: E. coli Rosetta (DE3) pLysS, pCA528 vector, purified (Ni-NTA; Mono Q for the gel filtration); not shown: His6, N-terminal, kept; SUMO, N-terminal, kept
B2: phosphorylated His6-SUMO-TRAIP-wt (in vitro phosphorylated with CDK1/Cyclin B) (enzyme, X. laevis, UniProt Q6NRV0 1-464, looked up)
chain: B1 chain
modifications: phosphorylated in vitro by CDK1/Cyclin B; mutation of T280, S295 and S352 to alanine (TRAIP-3A) abolishes this phosphorylation
notes: TRAIP ubiquitin ligase, Xenopus laevis, wild type, as m1; the sites phosphorylated in vitro were not mapped one by one; T325 is discussed as a possible fourth site; also called phosphorylated TRAIP-wt; phosphorylated TRAIP; source: E. coli Rosetta (DE3) pLysS, purified (Ni-NTA, Mono Q), then phosphorylated in vitro with CDK1/Cyclin B; not shown: His6, N-terminal, kept; SUMO, N-terminal, kept

How the values were obtained:
[1] = biological target: the molecule itself; experiment: SEC + other: glycerol gradient sedimentation; Superdex 200 Increase 3.2/300 (Stoke's radius 62.77 Å) and 20%-40% glycerol gradient in LFB1/100 (5.105 S), combined by the Siegel-Monty method; apparent molecular size; monomer to dimer
[2] = biological target: the molecule itself; experiment: SEC; Superdex 200 Increase 3.2/300, 20 μl/min; TRAIP-wt and CDK1/Cyclin B-phosphorylated TRAIP-wt loaded one at a time; fractions blotted with TRAIP antibodies

Row | Protein | stoichiometry N [1] | binding result [2]
1 | B1 | 2 | 
2 | B2 |  | binds
